Laboratory results from patent publication US20160215297.

Experiments:
Experiment in all cases: cell_activity
[1] = test system: Il2rg ZFN left (synthetic construct); conditions: pair with ZFN right; mRNA electroporated into rat zygotes, 3/4 offspring; Surveyor assay positive in rat fibroblasts; 37% and 73% in Tests 5-1 and 5-2
[2] = test system: Il2rg ZFN right (synthetic construct); conditions: pair with ZFN left; mRNA electroporated into rat zygotes, 3/4 offspring; Surveyor assay positive in rat fibroblasts; 37% and 73% in Tests 5-1 and 5-2
[3] = test system: Il2rg TALEN right (synthetic construct); conditions: pair with TALEN left; mRNA electroporated into rat zygotes, 3/17 offspring; Surveyor assay positive in rat fibroblasts
[4] = test system: Il2rg TALEN left (synthetic construct); conditions: pair with TALEN right; mRNA electroporated into rat zygotes, 3/17 offspring; Surveyor assay positive in rat fibroblasts

Sequence: GCATAGTGAGGTTGG (double strand) [Il2rg ZFN left binding site]
- activity (% mutant offspring) [1]: 75

Sequence: GGTATGAGAAGGGGG (double strand) [Il2rg ZFN right binding site]
- activity (% mutant offspring) [2]: 75

Sequence: TCCAAGTGCAATTCATATACT (double strand) [Il2rg TALEN right binding site]
- activity (% mutant offspring) [3]: 18

Sequence: TCCCAGAGGTTCAATGCT (double strand) [Il2rg TALEN left binding site]
- activity (% mutant offspring) [4]: 18
